Consider one substance from PMC4856149.

For assay [1], the target named is recombinant GST-Arc (UniProt Q63053). The assay is described as follows: Scatchard analysis.
The target is the same in assay [2]. The assay is described as follows: Scatchard analysis. The source holds these as a separate data set.

Read-outs that look alike come from different tables or passages of the source.

Chain of UniProt Q63053 (Q63053 whole entry): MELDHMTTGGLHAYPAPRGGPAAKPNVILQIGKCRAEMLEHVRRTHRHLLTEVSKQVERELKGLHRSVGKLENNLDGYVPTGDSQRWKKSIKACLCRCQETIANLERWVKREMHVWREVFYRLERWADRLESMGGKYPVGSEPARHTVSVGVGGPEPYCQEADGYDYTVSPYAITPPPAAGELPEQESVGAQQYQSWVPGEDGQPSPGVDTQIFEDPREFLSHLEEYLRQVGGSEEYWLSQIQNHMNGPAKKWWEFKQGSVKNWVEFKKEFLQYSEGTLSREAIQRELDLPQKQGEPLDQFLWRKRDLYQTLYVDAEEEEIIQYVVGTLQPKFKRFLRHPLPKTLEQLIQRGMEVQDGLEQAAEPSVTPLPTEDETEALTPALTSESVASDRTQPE

The term Kd denotes the equilibrium constant for the complex coming apart. On to “recombinant CaMKIIα (from UniProt P11275 1-478) (enzyme)”, for which the dissociation constant (Kd) is 10 µM in assay [1] and 60 µM in assay [2].
